From article PMC10246534 (Nature Communications, 2023) come the findings set out here.

For the assay, the target named is Delta RBD WT (SARS-CoV-2, Delta variant (B.1.617.2), L452R). As to the kind of experiment: SPR; Biacore T200; […]; HBS-EP, 25 °C; 1:1 binding model. The conditions noted are these: both partners purified.

B1: casirivimab (antibody, V domains shown)
VH: QVQLVESGGGLVKPGGSLRLSCAASGFTFSDYYMSWIRQAPGKGLEWVSYITYSGSTIYYADSVKGRFTISRDNAKSSLYLQMNSLRAEDTAVYYCARDRGTTMVPFDYWGQGTLVTVSS
VL: DIQMTQSPSSLSASVGDRVTITCQASQDITNYLNWYQQKPGKAPKLLIYAASNLETGVPSRFSGSGSGTDFTFTISGLQPEDIATYYCQQYDNLPLTFGGGTKVEIK
notes: source: Regeneron
B1 returned a Kd of 0.36 nM.

B2: imdevimab (antibody, V domains shown)
VH: QVQLVESGGGVVQPGRSLRLSCAASGFTFSNYAMYWVRQAPGKGLEWVAVISYDGSNKYYADSVKGRFTISRDNSKNTLYLQMNSLRTEDTAVYYCASGSDYGDYLLVYWGQGTLVTVSS
VL: QSALTQPASVSGSPGQSITISCTGTSSDVGGYNYVSWYQQHPGKAPKLMIYDVSKRPSGVSNRFSGSKSGNTASLTISGLQSEDEADYYCNSLTSISTWVFGGGTKLTVL
notes: source: Regeneron
Turning to B2, the Kd worked out at 9.4 nM.

One may read the Kd as the free concentration of one partner at which half of the binding sites on the other are occupied at equilibrium, for simple one-to-one binding. Higher therefore signals lower affinity.
